Test results: patent JP2018153172A (dated 2018)
Ends that are not written are not given here.

What was measured:
[1] = biological target: T1, 可溶性ヒトgp130受容体 (soluble human gp130 receptor, extracellular region of SEQ ID NO 1 with six histidines) (human, UniProt P40189 23-619); test: ELISA, immobilised soluble human gp130, COS1 supernatant, anti-human antibody-HRP
T1 construct: Secreted from CHO DG44 cells and purified on HisTrap; no cleavage site is stated; also called 可溶性ヒトgp130受容体タンパク質; ヒト可溶性gp130受容体
T1 sequence: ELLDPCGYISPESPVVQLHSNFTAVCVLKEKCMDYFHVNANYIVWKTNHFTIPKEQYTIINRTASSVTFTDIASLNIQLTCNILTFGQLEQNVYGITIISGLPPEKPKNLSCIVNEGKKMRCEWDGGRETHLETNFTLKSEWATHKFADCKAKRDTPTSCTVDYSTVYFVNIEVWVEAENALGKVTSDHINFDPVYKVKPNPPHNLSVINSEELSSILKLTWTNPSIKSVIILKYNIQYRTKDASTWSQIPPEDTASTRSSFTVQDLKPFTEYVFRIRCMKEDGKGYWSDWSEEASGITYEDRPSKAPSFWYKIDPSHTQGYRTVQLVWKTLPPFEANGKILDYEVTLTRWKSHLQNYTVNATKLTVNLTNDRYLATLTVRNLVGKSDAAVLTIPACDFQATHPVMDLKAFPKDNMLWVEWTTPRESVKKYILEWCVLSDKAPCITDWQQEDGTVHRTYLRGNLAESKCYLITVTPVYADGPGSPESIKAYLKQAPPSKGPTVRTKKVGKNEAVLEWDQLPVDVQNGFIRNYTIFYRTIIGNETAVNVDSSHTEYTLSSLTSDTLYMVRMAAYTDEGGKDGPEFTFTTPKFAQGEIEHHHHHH

[2] = biological target: T1, 可溶性ヒトgp130受容体 (soluble human gp130 …); test: SPR, Biacore T200, gp130 amine-coupled on CM5, antibody as analyte
[3] = biological target: T2, SEQ ID NO 128 (15-residue oligopeptide of human gp130) (human, also: linker added for immobilisation); test: peptide microarray, antibody at 10 ug/mL, fluorescence
T2 construct: also called 配列番号128
T2 peptide: DLKPFTEYVFRIRCM

[4] = biological target: T3, SEQ ID NO 110 (15-residue oligopeptide of human gp130) (human, also: linker added for immobilisation); test: as above
T3 construct: also called 配列番号110
T3 peptide: VIILKYNIQYRTKDA

[5] = biological target: T4, SEQ ID NO 127 (15-residue oligopeptide of human gp130) (human, also: linker added for immobilisation); test: as above
T4 construct: also called 配列番号127
T4 peptide: VQDLKPFTEYVFRIR

[6] = biological target: T5, SEQ ID NO 109 (15-residue oligopeptide of human gp130) (human, also: linker added for immobilisation); test: as above
T5 construct: also called 配列番号109
T5 peptide: KSVIILKYNIQYRTK

[7] = biological target: T6, SEQ ID NO 108 (15-residue oligopeptide of human gp130) (human, also: linker added for immobilisation); test: as above
T6 construct: also called 配列番号108
T6 peptide: SIKSVIILKYNIQYR

[8] = biological target: T1, 可溶性ヒトgp130受容体 (soluble human gp130 …); test: SPR, Biacore T200, gp130 on CM5, antibody as analyte
[9] = biological target: T1, 可溶性ヒトgp130受容体 (soluble human gp130 …); test: SPR, Biacore T200, gp130 amine-coupled on CM5 (266 RU), antibody as analyte

B1: ヒト化抗体A AH9−AL7 (antibody, V domains shown)
VH: EVQLVESGGGLVQPGGSLRLSCKASGYTFTDYNMDWVRQAPGKGLEWVGDINSHSGGIIYNQKFKDRFTISADTSKNTAYLQMNSLRAEDTAVYYCARTYYVYGHFFDYWGQGTLVTVSS
VL: DIQMTQSPSTLSASIGDRVTITCNVSSSVTSMYWFQQRPGQAPKVLIYLTSNLASGVPSRFSGSGSGTDFTFTISSLQPEDIATYYCQQWSTNPLTFGGGTKVDIK
notes: VH on human IgG1 constant region (pFUSEss-CHIg-hG1), VL on human kappa constant region (pFUSE2ss-CLIg-hk); also called AH9-AL7
binding result [1]: binds

B2: 抗体A (antibody A, mouse anti-human gp130 monoclonal antibody) (antibody, mouse IgG1, kappa, V domains shown)
VH: EVLLQQSGPELVKPGASVKIPCKASGYTFTDYNMDWVKQSHGKSLEWIGDINSHSGGIIYNQKFKDKAILTVDKSSSTAYMELRSLTSEDTAVYYCARTYYVYGHFFDYWGQGTTLTVSS
VL: QSVLTQSPAFISASPGEKVTMTCNVSSSVTSMYWYQQKPGSSPKPWIYLTSNLASGVPPRFSGSGSGTSYSLTISSLEAEDAATYYCQQWSTNPLTFGAGTKLELKR
notes: Mouse IgG1, kappa; also called マウス抗体A; ヒト化前の抗体A(マウス抗体)
Kd [2]: 0.667 nM
koff [2]: 0.000116 s⁻¹
kon [2]: 174000 M⁻¹ s⁻¹
binding result [3]: binds
binding result [4]: binds
binding result [5]: binds
binding result [6]: binds
binding result [7]: binds

B3: ヒト化抗体AH2−2AL4F1 (antibody, human IgG1, kappa, V domains shown)
VH: QVQLQQPGAELVQPGTSVRLSCKASGYTFTDYNMDWVKQRPGQGLEWIGDINSHSGGIIYNQKFKDKATLTVDKSSSTAYMQLSSLTSEDSAVYYCARTYYVYGHFFDYWGQGTLVTVSA
VL: DIQMTQSPSSLSASVGDRVTITCNVSSSVTSMYWYQQKQGKSPQLLVYLTSNLASGVPSRFSGSGSGTQFSLKINNLQPEDFGSYYCQQWSTNPLTFGQGTKLDLKR
notes: also called AH2−2L4F1
Kd [8]: 1.98 nM
koff [8]: 0.000221 s⁻¹
kon [8]: 111000 M⁻¹ s⁻¹

B4: ヒト化抗体AH2−2L14A10 (antibody, human IgG1, kappa, V domains shown)
VH: QVQLQQPGAELVQPGTSVRLSCKASGYTFTDYNMDWVKQRPGQGLEWIGDINSHSGGIIYNQKFKDKATLTVDKSSSTAYMQLSSLTSEDSAVYYCARTYYVYGHFFDYWGQGTLVTVSA
VL: DIQMTQSPSTLSASIGDRVTITCNVSSSVTSMYWYQQKPGKAPKLLIYLTSNLASGVPSRFSGSGSGTDFTLTISSLQPEDFATYYCQQWSTNPLTFGQGTKLEIKR
Kd [8]: 1.3 nM
koff [8]: 0.000202 s⁻¹
kon [8]: 155000 M⁻¹ s⁻¹

B5: ヒト化抗体AH2−2L6E6 (antibody, human IgG1, kappa, V domains shown)
VH: QVQLQQPGAELVQPGTSVRLSCKASGYTFTDYNMDWVKQRPGQGLEWIGDINSHSGGIIYNQKFKDKATLTVDKSSSTAYMQLSSLTSEDSAVYYCARTYYVYGHFFDYWGQGTLVTVSA
VL: ELVLTQSPGTLSLSAGERATLSCNVSSSVTSMYWYQQKPGKAPKLLIYLTSNLASGVPSRFSGSGSGTDYTFTISSLQPEDIATYYCQQWSTNPLTFGQGTKVEIKR
Kd [8]: 0.991 nM
koff [8]: 0.000209 s⁻¹
kon [8]: 211000 M⁻¹ s⁻¹

B6: ヒト化抗体A AH7−AL3 (antibody, V domains shown)
VH: EVQLVQSGAEVKKPGATVKISCKASGYTFTDYNMDWVRQAPGQGLEWIGDINSHSGGIIYNQKFKDWVTMTRDTSINTAYMELRLRSDDTAVYYCARTYYVYGHFFDYWGQGTLVTVSA
VL: DIQMTQSPSTLSASVGDRVTITCNVSSSVTSMYWYQQKPGKAPKLLIYLTSNLASGVPARFSGSGSGTEFTLTISSLQPDDFATYYCQQWSTNPLTFGQGTKVEVK
notes: VH on human IgG1 constant region (pFUSEss-CHIg-hG1), VL on human kappa constant region (pFUSE2ss-CLIg-hk); also called AH7-AL3
binding result [1]: binds

B7: ヒト化抗体A AH7−AL6 (antibody, V domains shown)
VH: EVQLVQSGAEVKKPGATVKISCKASGYTFTDYNMDWVRQAPGQGLEWIGDINSHSGGIIYNQKFKDWVTMTRDTSINTAYMELRLRSDDTAVYYCARTYYVYGHFFDYWGQGTLVTVSA
VL: EIVLTQSPATLSLSPGERATLSCNVSSSVTSMYWYQQKPGQAPRLLIYLTSNLASGIPDRFSGSGSGTDFTLTISRLEPEDFAVYYCQQWSTNPLTFGQGTKVEIK
notes: VH on human IgG1 constant region (pFUSEss-CHIg-hG1), VL on human kappa constant region (pFUSE2ss-CLIg-hk); also called AH7-AL6
binding result [1]: binds

B8: ヒト化抗体A AH7−AL2 (antibody, V domains shown)
VH: EVQLVQSGAEVKKPGATVKISCKASGYTFTDYNMDWVRQAPGQGLEWIGDINSHSGGIIYNQKFKDWVTMTRDTSINTAYMELRLRSDDTAVYYCARTYYVYGHFFDYWGQGTLVTVSA
VL: DIQMTQSPSSLSASVGDRVTITCNVSSSVTSMYWYQQKQGKSPQLLVYLTSNLASGVPSRFSGSGSGTQFSLKINNLQPEDFGSYYCQQWSTNPLTFGAGTKLDLK
notes: VH on human IgG1 constant region (pFUSEss-CHIg-hG1), VL on human kappa constant region (pFUSE2ss-CLIg-hk); also called AH7-AL2
binding result [1]: binds

B9: ヒト化抗体A AH8−AL4 (antibody, V domains shown)
VH: EVQLVQSGAEVKKPGASVKVSCKASGYTFTDYNMDWVRQAPGKGLEWVGDINSHSGGIIYNQKFKDRVTITADRSTSTVYMELSGLRSEDTAVYYCARTYYVYGHFFDYWGKGTLVTVSS
VL: DIQMTQSPSSLSASVGDRVTITCNVSSSVTSMYWYQQKQGKSPQLLVYLTSNLASGVPSRFSGSGSGTDFTLTISSLQPEDFATYYCQQWSTNPLTFGQGTKVEIK
notes: VH on human IgG1 constant region (pFUSEss-CHIg-hG1), VL on human kappa constant region (pFUSE2ss-CLIg-hk); also called AH8-AL4
binding result [1]: binds

B10: ヒト化抗体A AH7−AL8 (antibody, V domains shown)
VH: EVQLVQSGAEVKKPGATVKISCKASGYTFTDYNMDWVRQAPGQGLEWIGDINSHSGGIIYNQKFKDWVTMTRDTSINTAYMELRLRSDDTAVYYCARTYYVYGHFFDYWGQGTLVTVSA
VL: ELVLTQSPGTLSLSAGERATLSCNVSSSVTSMYWYQQKPGKAPKLLIYLTSNLASGAPSRFSGSGSGTDFTLTISSLQPDDFATYYCQQWSTNPLTFGGGTKLEIK
notes: VH on human IgG1 constant region (pFUSEss-CHIg-hG1), VL on human kappa constant region (pFUSE2ss-CLIg-hk); also called AH7-AL8
binding result [1]: binds

B11: ヒト化抗体A AH7−AL7 (antibody, V domains shown)
VH: EVQLVQSGAEVKKPGATVKISCKASGYTFTDYNMDWVRQAPGQGLEWIGDINSHSGGIIYNQKFKDWVTMTRDTSINTAYMELRLRSDDTAVYYCARTYYVYGHFFDYWGQGTLVTVSA
VL: DIQMTQSPSTLSASIGDRVTITCNVSSSVTSMYWFQQRPGQAPKVLIYLTSNLASGVPSRFSGSGSGTDFTFTISSLQPEDIATYYCQQWSTNPLTFGGGTKVDIK
notes: VH on human IgG1 constant region (pFUSEss-CHIg-hG1), VL on human kappa constant region (pFUSE2ss-CLIg-hk); also called AH7-AL7
binding result [1]: binds

B12: ヒト化抗体AH2−AL3 (antibody, V domains shown)
VH: QVQLQQPGAELVQPGTSVRLSCKASGYTFTDYNMDWVKQRPGQGLEWIGDINSHSGGIIYNQKFKDKATLTVDKSSSTAYMQLSSLTSEDSAVYYCTRTYYVYGHFFDYWGQGTLVTVSA
VL: DIQMTQSPSTLSASVGDRVTITCNVSSSVTSMYWYQQKPGKAPKLLIYLTSNLASGVPARFSGSGSGTEFTLTISSLQPDDFATYYCQQWSTNPLTFGQGTKVEVK
notes: VH on human IgG1 constant region (pFUSEss-CHIg-hG1), VL on human kappa constant region (pFUSE2ss-CLIg-hk); also called AH2-AL3
Kd [9]: 3.8 nM
koff [9]: 0.000268 s⁻¹
kon [9]: 70600 M⁻¹ s⁻¹

B13: ヒト化抗体A AH7−AL4 (antibody, V domains shown)
VH: EVQLVQSGAEVKKPGATVKISCKASGYTFTDYNMDWVRQAPGQGLEWIGDINSHSGGIIYNQKFKDWVTMTRDTSINTAYMELRLRSDDTAVYYCARTYYVYGHFFDYWGQGTLVTVSA
VL: DIQMTQSPSSLSASVGDRVTITCNVSSSVTSMYWYQQKQGKSPQLLVYLTSNLASGVPSRFSGSGSGTDFTLTISSLQPEDFATYYCQQWSTNPLTFGQGTKVEIK
notes: VH on human IgG1 constant region (pFUSEss-CHIg-hG1), VL on human kappa constant region (pFUSE2ss-CLIg-hk); also called AH7-AL4
binding result [1]: binds

B14: ヒト化抗体AH2−AL4 (antibody, V domains shown)
VH: QVQLQQPGAELVQPGTSVRLSCKASGYTFTDYNMDWVKQRPGQGLEWIGDINSHSGGIIYNQKFKDKATLTVDKSSSTAYMQLSSLTSEDSAVYYCTRTYYVYGHFFDYWGQGTLVTVSA
VL: DIQMTQSPSSLSASVGDRVTITCNVSSSVTSMYWYQQKQGKSPQLLVYLTSNLASGVPSRFSGSGSGTDFTLTISSLQPEDFATYYCQQWSTNPLTFGQGTKVEIK
notes: VH on human IgG1 constant region (pFUSEss-CHIg-hG1), VL on human kappa constant region (pFUSE2ss-CLIg-hk); also called AH2-AL4
Kd [9]: 4.61 nM
koff [9]: 0.000289 s⁻¹
kon [9]: 62700 M⁻¹ s⁻¹

B15: ヒト化抗体A AH7−AL5 (antibody, V domains shown)
VH: EVQLVQSGAEVKKPGATVKISCKASGYTFTDYNMDWVRQAPGQGLEWIGDINSHSGGIIYNQKFKDWVTMTRDTSINTAYMELRLRSDDTAVYYCARTYYVYGHFFDYWGQGTLVTVSA
VL: DIQMTQSPASLSASVGETVTITCNVSSSVTSMYWYQQKPGKAPKLLIYLTSNLASGVPARFSGSGSGTEFTLTISSLQPDDFATYYCQQWSTNPLTFGAGTKLDLK
notes: VH on human IgG1 constant region (pFUSEss-CHIg-hG1), VL on human kappa constant region (pFUSE2ss-CLIg-hk); also called AH7-AL5
binding result [1]: binds
